The source of these data is article PMC2833280.

Substrate in series [1]: N=C(N)NCCC[C@H](NCCC(=O)O)C(=O)O
Nature of the series: purified protein. The series is classed as biochemical, Streptomyces clavuligerus. As to conditions: pH 8.8, 25 °C, saturating ATP (2-4 mM), ionic strength 0.1.

Substrate in series [2]: O=C(O)C[C@@H]1CC[C@@H](C(=O)O)N1
The series is described as follows: purified protein. The series is classed as biochemical, Streptomyces clavuligerus. The following applies: pH 8.3, 25 °C, 2 mM ATP, ionic strength 0.1.

B1: β-LS (β-lactam synthetase) (Streptomyces clavuligerus; Y348F) (protein)
chain: MGAPVLPAAFGFLASARTGGGRAPGPVFATRGSHTDIDTPQGERSLAATLVHAPSVAPDRAVARSLTGAPTTAVLAGEIYNRDELLSVLPAGPAPEGDAELVLRLLERYDLHAFRLVNGRFATVVRTGDRVLLATDHAGSVPLYTCVAPGEVRASTEAKALAAHRDPKGFPLADARRVAGLTGVYQVPAGAVMDIDLGSGTAVTHRTWTPGLSRRILPEGEAVAAVRAALEKAVAQRVTPGDTPLVVLSGGIDSSGVAACAHRAAGELDTVSMGTDTSNEFREARAVVDHLRTRHREITIPTTELLAQLPYAVWASESVDPDIIEYLLPLTALYRALDGPERRILTGFGADIPLGGMHREDRLPALDTVLAHDMATFDGLNEMSPVLSTLAGHWTTHPYWDREVLDLLVSLEAGLKRRHGRDKWVLRAAMADALPAETVNRPKLGVHEGSGTTSSFSRLLLDHGVAEDRVHEAKRQVVRELFDLTVGGGRHPSEVDTDDVVRSVADRTARGAA
As a reminder, the Km is the substrate concentration at which the rate is half of its maximum. A word on the kcat: it is the number of substrate molecules converted per active site and unit of time at saturation. What is called kcat/Km is the second-order rate constant that governs catalysis at low substrate concentration. For B1, in “purified protein [1]”, the Km is 1400 ± 200 µM, the kcat came out at 0.155 ± 0.007 s⁻¹ and the kcat/Km came to 110 ± 20 M⁻¹ s⁻¹.

B2: β-LS (β-lactam synthetase) (Streptomyces clavuligerus; Y348A) (protein)
chain: MGAPVLPAAFGFLASARTGGGRAPGPVFATRGSHTDIDTPQGERSLAATLVHAPSVAPDRAVARSLTGAPTTAVLAGEIYNRDELLSVLPAGPAPEGDAELVLRLLERYDLHAFRLVNGRFATVVRTGDRVLLATDHAGSVPLYTCVAPGEVRASTEAKALAAHRDPKGFPLADARRVAGLTGVYQVPAGAVMDIDLGSGTAVTHRTWTPGLSRRILPEGEAVAAVRAALEKAVAQRVTPGDTPLVVLSGGIDSSGVAACAHRAAGELDTVSMGTDTSNEFREARAVVDHLRTRHREITIPTTELLAQLPYAVWASESVDPDIIEYLLPLTALYRALDGPERRILTGAGADIPLGGMHREDRLPALDTVLAHDMATFDGLNEMSPVLSTLAGHWTTHPYWDREVLDLLVSLEAGLKRRHGRDKWVLRAAMADALPAETVNRPKLGVHEGSGTTSSFSRLLLDHGVAEDRVHEAKRQVVRELFDLTVGGGRHPSEVDTDDVVRSVADRTARGAA
For B2, in the series “purified protein [1]”, the Km is 190 ± 20 µM, the turnover number (kcat) is 0.0082 ± 0.0002 s⁻¹ and the specificity constant (kcat/Km) was 43 ± 4 M⁻¹ s⁻¹.

B3: β-LS (β-lactam synthetase) (Streptomyces clavuligerus; E382D) (protein)
chain: MGAPVLPAAFGFLASARTGGGRAPGPVFATRGSHTDIDTPQGERSLAATLVHAPSVAPDRAVARSLTGAPTTAVLAGEIYNRDELLSVLPAGPAPEGDAELVLRLLERYDLHAFRLVNGRFATVVRTGDRVLLATDHAGSVPLYTCVAPGEVRASTEAKALAAHRDPKGFPLADARRVAGLTGVYQVPAGAVMDIDLGSGTAVTHRTWTPGLSRRILPEGEAVAAVRAALEKAVAQRVTPGDTPLVVLSGGIDSSGVAACAHRAAGELDTVSMGTDTSNEFREARAVVDHLRTRHREITIPTTELLAQLPYAVWASESVDPDIIEYLLPLTALYRALDGPERRILTGYGADIPLGGMHREDRLPALDTVLAHDMATFDGLNDMSPVLSTLAGHWTTHPYWDREVLDLLVSLEAGLKRRHGRDKWVLRAAMADALPAETVNRPKLGVHEGSGTTSSFSRLLLDHGVAEDRVHEAKRQVVRELFDLTVGGGRHPSEVDTDDVVRSVADRTARGAA
On to B3, for which, in “purified protein [1]”, the Km is 2800 ± 200 µM, the catalytic constant (kcat) came to 0.193 ± 0.006 s⁻¹ and the specificity constant (kcat/Km) is 69 ± 6 M⁻¹ s⁻¹.

B4: β-LS (β-lactam synthetase) (Streptomyces clavuligerus) (protein)
chain: MGAPVLPAAFGFLASARTGGGRAPGPVFATRGSHTDIDTPQGERSLAATLVHAPSVAPDRAVARSLTGAPTTAVLAGEIYNRDELLSVLPAGPAPEGDAELVLRLLERYDLHAFRLVNGRFATVVRTGDRVLLATDHAGSVPLYTCVAPGEVRASTEAKALAAHRDPKGFPLADARRVAGLTGVYQVPAGAVMDIDLGSGTAVTHRTWTPGLSRRILPEGEAVAAVRAALEKAVAQRVTPGDTPLVVLSGGIDSSGVAACAHRAAGELDTVSMGTDTSNEFREARAVVDHLRTRHREITIPTTELLAQLPYAVWASESVDPDIIEYLLPLTALYRALDGPERRILTGYGADIPLGGMHREDRLPALDTVLAHDMATFDGLNEMSPVLSTLAGHWTTHPYWDREVLDLLVSLEAGLKRRHGRDKWVLRAAMADALPAETVNRPKLGVHEGSGTTSSFSRLLLDHGVAEDRVHEAKRQVVRELFDLTVGGGRHPSEVDTDDVVRSVADRTARGAA
Take B4: in “purified protein [2]”, the Km amounted to 4900 ± 700 µM and the kcat came to 0.026 ± 0.002 s⁻¹.
